Consider 2 molecules from US20040086528A1 (PROGENICS PHARMACEUTICALS, published 2004).

Where a chain is given by its changes, count along the chain named.

Common to all, as to test: cell-based or functional assay
The target of assay [1] is T1, CCR5 D2A, HA-tagged (human, UniProt P51681 1-352).
T1 sequence (looked up): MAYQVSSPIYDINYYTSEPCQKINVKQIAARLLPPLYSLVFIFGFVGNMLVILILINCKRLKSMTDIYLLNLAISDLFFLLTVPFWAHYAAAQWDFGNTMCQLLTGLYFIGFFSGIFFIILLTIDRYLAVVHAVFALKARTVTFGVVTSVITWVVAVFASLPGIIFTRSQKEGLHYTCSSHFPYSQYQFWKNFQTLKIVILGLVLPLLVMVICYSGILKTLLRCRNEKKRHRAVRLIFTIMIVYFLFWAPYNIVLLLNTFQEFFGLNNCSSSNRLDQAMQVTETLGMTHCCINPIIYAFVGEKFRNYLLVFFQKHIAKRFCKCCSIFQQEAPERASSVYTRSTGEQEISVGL

Assay [2] addresses T2, CCR5 N13A, HA-tagged (human, UniProt P51681 1-352).
T2 sequence: T1 sequence (looked up) with A2D, N13A

Assay [3] concerns the target T3, CCR5 Q93A, HA-tagged (human, UniProt P51681 1-352).
T3 sequence: T1 sequence (looked up) with A2D, Q93A

The target in assay [4] is T4, CCR5 D95A, HA-tagged (human, UniProt P51681 1-352).
T4 sequence: T1 sequence (looked up) with A2D, D95A

Assay [5] addresses T5, CCR5 H181A, HA-tagged (human, UniProt P51681 1-352).
T5 sequence: T1 sequence (looked up) with A2D, H181A

For assay [6], the target named is T6, CCR5 Q188A, HA-tagged (human, UniProt P51681 1-352).
T6 sequence: T1 sequence (looked up) with A2D, Q188A

The target of assay [7] is T7, CCR5 E262A, HA-tagged (human, UniProt P51681 1-352).
T7 sequence: T1 sequence (looked up) with A2D, E262A

B1: macrophage inflammatory protein (MIP)-1β, recombinant human (ligand, UniProt P13236 24-92, looked up)
chain: APMGSDPPTACCFSYTARKLPRNFVVDYYETSSLCSQPAVVFQTKRSKQVCADPSESWVQEYVYDLELN
B1: the “relative % inhibition of NLluc/JR-FL entry into U87MG-CD4 cells by 2 µg/ml chemokine (wild-type = 100)” value (from here on “relative % inhibition”) in assay [1] was found to be 97%; in assay [2], 93%; in assay [3], 97%; in assay [4] it was 112%; in assay [5], 53%; in assay [6] it was 75%. In assay [7], the “relative % inhibition” value was 102%.

B2: RANTES, recombinant human (ligand)
chain: SPYSSDTTPCCFAYIARPLPRAHIKEYFYTSGKCSNPAVVFVTRKNRQVCANPEKKWVREYINSLEMS
For the molecule B2, the “relative % inhibition” value in assay [1] turned out to be 85%; in assay [2], 92%; in assay [3], 114%; in assay [4] it was 121%; in assay [5], 39%; in assay [6] it was 51%. The “relative % inhibition” value in assay [7] was 100%.
